The results in this text go back to paper PMC11095456.

The target of the first assay is EVI1 MAPPIT bait, wild type. Briefly: MAPPIT. Conditions: HEK293T cells; +Epo; cotransfected with EVI1; parent: est. 29; read off a plot; scale: % of maximum induction.
As to “CTBP2 MAPPIT prey, wild type (from UniProt P56545) A58E”, the response worked out at 29. Take “CTBP2 MAPPIT prey, wild type (from UniProt P56545) A58E; V72R”: the response was 10.

As for “CTBP2 MAPPIT prey, wild type (from UniProt P56545) V72R”, the response was found to be 11.

The next assay has as its target CTBP2 MAPPIT prey, wild type (UniProt P56545). Briefly: MAPPIT. The conditions noted are these: HEK293T cells; +Epo; cotransfected with CTBP2; parent: est. 32; read off a plot; scale: % of maximum induction.
With EVI1 MAPPIT bait, wild type PFDLT SWAP, the response stood at 3. Take EVI1 MAPPIT bait, wild type PFDLT>PFAST: the response is 30.

Consider EVI1 MAPPIT bait, wild type PLDLS SWAP, for which the response was 5. On the same count and under the same terms, as for EVI1 MAPPIT bait, wild type PLDLS>PLASS, the figure is 3.
